The results in this text go back to patent publication US20210292393A1 (published 2021).

Substitutions are numbered along the chain they refer to.

B1: antibody 546 (antibody, V domains shown)
VH: QVQLVESGGGVVQPGRSLRLSCAASGFTFSSYGMHWVRQAPGKGLEWVAVIWYDGSNKYYADSVKGRFTISRDNSKNTLYLQMNSLRAEDTAVYYCARNCGGDCVAGDGFDYWGQGTLVTVSS
VL: DIQMTQSPSSLSASVGDRVTITCRASQSISSYLNWYQQKPGKAPNLLIYAASSLQSGVPSRFSGSGSGTDFTLTISSLQPEDFATYYCQQSYSALTWTFGQGTKVEIK
B2: antibody 537 (antibody, V domains shown)
VH: QVQLQQWGAGLLKPSETLSLTCAVYGGSFSGYYWSWIRQPPGKGLEWIGEINHSGSTNYNPSLKSRVTISVDTSKNQFSLKLSSVTAADTAVYYCARGLYYDMGGGFDYWGQGTLVTVSS
VL: not shown
B3: antibody 560 (antibody, V domains shown)
VH: EVQLVESGGGLVQPGGSLRLSCAASGFTISSNYMSWVRQAPGKGLEWVSVIYSGGSTYYADSVKGRFTISRDNSKNTLYLQMNSLRAEDTAVYYCAREEGEWEKDYYGMDVWGQGTTVTVSS
VL: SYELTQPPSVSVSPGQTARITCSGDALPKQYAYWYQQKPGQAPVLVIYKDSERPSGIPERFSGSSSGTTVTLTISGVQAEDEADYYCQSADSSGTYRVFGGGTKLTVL
B4: antibody 548 (antibody, V domains shown)
VH: QVQLVESGGGVVQPGRSLRLSCAASGFTFSSYAMHWVRQAPGKGLEWVAVISYDGSNKYYADSVKGRFTISRDNSKNTLYLQMNNLRAEDTAVYYCAKSGSGSYLSAFDIWGQGTMVTVSS
VL: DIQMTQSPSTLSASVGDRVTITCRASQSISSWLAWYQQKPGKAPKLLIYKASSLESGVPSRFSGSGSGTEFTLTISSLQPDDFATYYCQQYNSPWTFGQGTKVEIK
B5: antibody 543 (antibody, V domains shown)
VH: EVQLVESGGGLVQPGRSLRLSCAASGFTFHDYAMHWVRQAPGKGLEWVSGISWNSGSIGYADSVKGRFTISRDNAKNSLYLQMNSLRAEDTALYYCAKDTFGSSSWYRGDSYYYYGMDVWGQGTTVTVSS
VL: QSALTQPASVSGSPGQSITISCTGTSSDVGGYNYVSWYQQHPGKAPKLMIYEVSNRPSGVSNRFSGSKSGNTASLTISGLQAEDEADYYCSSYTSSSTQRYVVFGGGTKLTVL
B6: antibody 547 (antibody, V domains shown)
VH: QVHLVESGGGVVQPGRSLRLSCAASGFALSSYAMHWVRQPPGKGLEWVALISYDGSVKKYADSVKGRITVSGDNSRNTLHLQINSLRADDTAVYYCVRGGVSGPNSFDLWGHGTMVTVSS
VL: DVVLTQSPLSLPVTLGQPASISCRSSQSLEYSVGNTYVNWFQQRPGQSPRRLIYKVSNRDSGVPDRFSGSGSGTDFTLQISRVEADDVGIYYCMQGTHWPVTFGQGTKVEIK
B7: antibody 527 (antibody, V domains shown)
VH: QLQLQESGPGLVKPSETLSLTCTVSGGSISSSSYYWGWIRQPPGKGLEWIGSIYYSGSTYYNPSLKSRVTISVDTSKNQFSLKLSSVTAADTAMYYCASHVVVIASSYWCFDLWGRGTLVTVSS
VL: QSALTQPASVSGSPGQSITISCTGTSSDVGGYNYVSWYQQHPGKAPKLMIYDVSNRPSGVSNRFSGSKSGNTASLTISGLQAEDEADYYCSSYTSISTWVFGGGTKLTVL
B8: antibody 556 (antibody, V domains shown)
VH: QVQLVESGGGVVQPGRSLRLSCAASGFTFSSYAMHWVRQAPGKGLEWVAVISYDGSDKYYADSVKGRVTISRDNSKNTLYLQMNSLRVEDTAVFYCAKDDCSGGVCFPDYWGQGTLVTVSS
VL: B7 VL with D52E, N55I, D87A, I96S, W99L
B9: antibody 541 (antibody, V domains shown)
VH: QVQLVQSGAEVKKPGASVKVSCKASGYTFTSYYVHWVRQAPGQSLEWMGVISPSTGSTTYAQNFQGRVTMTRDTSTTTVYMELSSLRSEDTAVYYCARDDYYDSTRYFDLWGRGTLVTVSS
VL: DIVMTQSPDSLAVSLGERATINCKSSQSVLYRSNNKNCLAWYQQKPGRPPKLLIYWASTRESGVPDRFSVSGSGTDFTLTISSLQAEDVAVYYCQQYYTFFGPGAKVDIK
B10: antibody 533 (antibody, V domains shown)
VH: GVQLVESGGVVVQPGGSLRLSCAASGFSFDDYTMHWVRQAPGKGLEWVSLVSWDGGTTYYTDSVKGRFTISRDNSKNSLYLQMNSLRTEDTALYFCAKDSGRIVPAATFDYWGQGTLVTVSS
VL: DIQMTQSSSSLSASVGDRVTITCRASQDISNYLAWFQQKPGKAPKSLIYAASSLQSGVPSKFSGSGSGTDFTLTISSLQPEDFATYYCQQYYTYPLTFGGGTKVEIK
B11: antibody 536 (antibody, V domains shown)
VH: QVQLVESGGGVVQPGRSLRLSCAASGFTFSSYVMHWVRQAPGKGLEWVALISYDGSNKYYADSVKGRFTISRDNSKNTLYLQMNSLRAEDTAVYYCARGGHIRVGRYFDWLISYFDYWGQGTLVTVSS
VL: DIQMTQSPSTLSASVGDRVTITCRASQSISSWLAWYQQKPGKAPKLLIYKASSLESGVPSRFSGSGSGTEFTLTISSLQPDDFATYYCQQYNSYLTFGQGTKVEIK
B12: antibody 545 (antibody, V domains shown)
VH: QVQLVQSGSELKKPGASVKVSCKASGYTFTSYAMNWVRQAPGQGLEWMGWINTNTGNPTYAQGFTGRFVFSLDTSVSTAYLQISVLKAEDTGVYYCARDHELPNSSSWFGHFEYWGQGTLVTVSS
VL: SYELTQPPSVSVSPGQTARITCSGDALPKQYAYWYQQKAGQAPVLVIYKDSERRSGIPERFSGSSSGTTVTLTISGVQAEDEADYYCQSADSSGTSVVFGGGTKLTVL
B13: anti-SARS-CoV-2 antibody 1009 (antibody, V domains shown)
VH: QLQLQESGPGLVKPSQTLSLTCTVSGGSISSGSYYWSWIRQPAGKGLEWIGSIYTSGSTYYNPSLKSRVTISVDTSKNQFSLKLSSVTAADTAVYYCARKNWLQGSFDYWGQGTLVIVSS
VL: NFMLTQPHSVSESPGKTVTISCTRSSGSIANNYVQWYQQRPGSAPTTVIYEDNQRPSGVPDRFSGSIDSSSNSASLTISGLKTEDEADYYCQSYDTSNHGVFGGGTKLTVL
B14: anti-SARS-CoV-2 antibody 1015 (antibody, V domains shown)
VH: EVQLVESGGGLVQPGGSLRLSCAASGFTFSSYWMHWVRQAPGKGLVWVSHINSDGSSTSYADSVKGRFTISRDNAKNTLYLQMNSLRAEDTAVYYCARGLRYFDLDVWGQGTTVTVSS
VL: QSVLTQPPSVSEAPRQRVTISCSGSSSNIGNNAVNWYQQLPGKAPKLLIFYDDLLPSGVSDRFSGSKSGTSASLAISGLQSEDEADYYCAAWDDSLNGGVFGGGTKLTVL
B15: anti-SARS-CoV-2 antibody 1000 (antibody, V domains shown)
VH: EVQLVESGGGLVQPGRSLRLSCAASGFTFDDYAMHWVRQAPGEGLEWVSGISWNSGSIGYADSVKGRFTISRDNAKNSLYLQMNSLRAEDTALYYCAKDTRFSFGTIAAAVSGYGMDVWGQGTTVTVSS
VL: QSALTQPASVSGSPGQSITISCTGTSSDVGIFNLVSWYQQHPGKAPKLMIYEVTKRPSGVSNRFSGSKSGNTASLTISGLQAEDEADYYCCSYAGSYVFGTGTKVTVL
B16: anti-SARS-CoV-2 antibody 1012 (antibody, V domains shown)
VH: EVQVVESGGGLVQPGGSRRLSCTASGFTLRNYWMSWVRQAPGKGLEWVANIKQDGSEKYYVDSVKGRFTISRDNAKNSLYLQMDSLRAEDTAVYYCARGGRYCPGGSCPRWGRGTLVTVSS
VL: DIQMTQSPSSLSASVGDRVTITCQASQDISNFLNWYQLKPGEAPTLLIFDASKLETGVPSRFSGTGFGTDFTFTISSLQPEDTATYYCQQYDDLTSITLGQGTRLEIK
B17: anti-SARS-CoV-2 antibody 1037 (antibody, V domains shown)
VH: QITLKESGPTLVKPTQTLTLTCTFSGFSLSTSGVGVGWIRQPPGKALEWLALIYWDDDKRYSPSLKSRLTITKDTSKNQVVLTMTNMDPVDTATYYCAHHTITRINDYWGQGTLVTVSS
VL: QSALTQPASVSGSPGQSITISCTATSSDVGAYNYVSWYQQHPGKAPKLMIYDVSKRPSGVSNRFSGSKSGNTASLTISGLQAEDEADYYCSSYTSSSTVFGGGTKLTVL
B18: anti-SARS-CoV-2 antibody 966 (antibody, V domains shown)
VH: QVQLVESGGGVVQPGRSLRLSCAASEFTFSSYGMHWVRQAPGKGLEWVAVISHDGSNEYYADSVKGRFTISRDNSKNTLYLQMNSLRAEDTAVYYCAKWRGPHRGYYDRSGYYLGSSRDDYWGQGTLVTVSS
VL: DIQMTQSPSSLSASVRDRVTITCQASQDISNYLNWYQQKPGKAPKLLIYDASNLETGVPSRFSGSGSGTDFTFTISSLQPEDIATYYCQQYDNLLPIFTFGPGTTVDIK
B19: anti-SARS-CoV-2 antibody 1075 (antibody, V domains shown)
VH: QVQLVQSGAEVKKPGASVKVSCKVSGYTLIELSMHWVRQAPGKGLEWMGGFDPEDGETIYAQKFQGRVTMTEDTSTDTAYMELSSLRSEDTAVYYCATEWAYYGSGSYLGYWGQGTLVTVSS
VL: EIVMTQSPATLSVSPGERATLSCRASQSVSSNLAWFQQKPGQAPRLLIYGASTRVTVIPARFSGSGSGTEFTLTISSLQSEDFAVYYCQQYNNWPRTFGQGTKVEIK
B20: anti-SARS-CoV-2 antibody 933 (antibody, V domains shown)
VH: QVQLVQSGAEVKKPGASVKVSCKASGYTFTTYDINWVRQATGQGLEWMGWMNPNSGYTDSAQKFQGRVTMTRNTSISTAYMELSSLRSEDTAVYYCASGRGVKTYYFDYWGQGTLVTVSS
VL: SYELTQPPSVSVSPGQTASITCSGDKLGDKSACWYQQKPGQSPVLVICQDTKRPSGIPERFSGSNSGNTATLTISGTQAMDEADYYCQAWDSRTVVFGGGTKLTVL
B21: anti-SARS-CoV-2 antibody 923 (antibody, V domains shown)
VH: EVQLVESGGGVVRPGGSLRLSCAASGFIFDDYDMTWVRQAPGKGLEWVSGISWNGGNTGYADSVKGRFTISRDNAKNSLYLQMNSLRAEDTALYHCAVIMSPIPRYSGYDWAGGAFDIWGQGTMVTVSS
VL: SSELTQDPAVSVALGQTVRITCQGDSLRSYYASWYQQKPGQVPILVIYDKNNRPSGIPDRFSGSSSGNTASLTITGAQAEDEADYYCNSRDSSGNAVVFGGGTKLTVL
B22: anti-SARS-CoV-2 antibody 1027 (antibody, V domains shown)
VH: EVQLVESGGGLVQPGGSLRLSCAASGFTVSSNYMSWVRQAPGKGLEWVSIIYSGGSTFYADSVKGRFTISRDSSKNTLYLQMSSLRAEDTAVYYCARDLDYYGMDVWGQGTTVTVSS
VL: DIQLTQSPSFLSAPVGDRVTITCRASQGISSYLAWYQQKPGKAPKLLIYGASTLQSGVPSRFSGSGSGTEFTLTISSLQPEDFATYYCQQLNSYQRFTFGPGTKVEIK
B23: anti-SARS-CoV-2 antibody 989 (antibody, V domains shown)
VH: QVQLQESGPGLVKPSQTLSLTCTVSGGSISSGSYYWSWIRQPAGKGLEWIGRIYTSGSTNYNPSLKSRVTMSVDTSKNHFSLKLRSVTAADTAVYYCARGIAVAGDDDYYYYYGLDVWGQGTTVTVSS
VL: B12 VL with A39P, L45M, Y48N, R54P, Q88H, S96Y, V97W

The target of the first experiment is SARS-CoV-2 full length spike protein, V483A mutant (SARS-CoV-2, UniProt P0DTC2 14-1273).
As for B1, the “median fold over isotype” value was determined as 18.9 fold over isotype.

B2: the “median fold over isotype” value was 3.74 fold over isotype.

Turning to B3, the “median fold over isotype” value was 14.8 fold over isotype.

On to B4, for which the “median fold over isotype” value was determined as 10.1 fold over isotype.

For the molecule B5, the “median fold over isotype” value stood at 8.92 fold over isotype.

Take B6: the “median fold over isotype” value came out at 11.4 fold over isotype.

For B7, the “median fold over isotype” value is 7.97 fold over isotype.

For the molecule B8, the “median fold over isotype” value is 7.35 fold over isotype.

On to B9, for which the “median fold over isotype” value amounted to 1.6 fold over isotype.

On to B10, for which the “median fold over isotype” value amounted to 4.86 fold over isotype.

With B11, the “median fold over isotype” value is 2.59 fold over isotype.

In the case of B12, the “median fold over isotype” value amounted to 14.3 fold over isotype.

The next experiment deals with SARS-CoV-2 spike protein with D614G mutation (SARS-CoV-2, UniProt P0DTC2 14-1208).
The term Kd denotes the constant that tells how readily two partners part at equilibrium. A higher Kd goes with lower affinity. The molecule B13 returned a Kd of 0.034 nM.

Consider B14, for which the Kd stood at 0.02 nM.

In turn, B15 registered a Kd of 0.016 nM. This Kd and that of the molecule before are within 1.5-fold of each other.

As to B16, the Kd worked out at 0.027 nM. Compared with the last molecule, the Kd is about 1.7-fold higher.

For B17, binding was put at a Kd of 0.023 nM.

In turn, B18 gave a Kd of 1.3 nM. This Kd lies about 57-fold higher than the previous one.

B19 returned a Kd of 0.023 nM.

Turning to B20, binding was put at a Kd of 29 nM.

On to B21, for which the Kd worked out at 0.022 nM.

B22: the Kd stood at 0.043 nM. Compared with the last molecule, the Kd is about 2-fold higher.

Molecule B23 had an equilibrium dissociation constant (Kd) of 0.039 nM. This Kd and that of the molecule before are within 1.5-fold of each other.
